Data on one substance can be found in paper PMC6128827.

For this experiment, the target named is three-helix bundle composed of syntaxin-1A and SNAP-25 (rat) (UniProt P32851). Put plainly: magnetic tweezers; single pre-assembled SNARE complex held between a PEG-biotin glass surface (NeutrAvidin) and an anti-digoxigenin magnetic bead by two 510-bp DNA handles; force ramps at 1 pN/s, force jumps and 1.2-kHz tracking at 10-16 pN; PBS pH 7.4 with 2.5 uM free SNAP-25; no Cpx.

The substance “rat synaptobrevin-2 (2–97, L32C/I97C) (from UniProt P63045 2-97) (domain or fragment)” yielded an average unzipping force (without Cpx) of 14.4 pN.
